The results in this text go back to patent publication US20050059584A1, “Novel chemokine mimetics synthesis and their use” (priority 2002, published 2005).

Positions of bridges follow the written chain, without caps; N, C: chain ends.

The target of the experiment is T1, CXCR4 receptor (Homo sapiens, UniProt P61073).
T1 construct: incubation of THP-1 cells with SDF-1; endogenous in cells; host or cells: THP-1 cells
Description: [Ca2+]i mobilization in fura-2,AM loaded THP-1 cells (FIG. 5, Table 6). Particulars: 1×10^6/ml. It is filed as cell-based. As to the method:
Fura-2,AM loaded THP-1 cells (1×10^6/ml) were stimulated with SDF-1, Compound A or Compound K at the concentrations indicated. The values represent the mean ± one S.D. of n=3 experiments.
Fura-2,AM loaded THP-1 cells (1×10^6/ml) were stimulated with native SDF-1 and the SDF-1 peptide analogs at the concentration of native SDF-1 concentration that gave the maximum [Ca^2+]1 stimulation (1 μM). The values represent the mean ± one S.D. of n=3 experiments.
This example illustrates the efficacy of SDF-1 and SDF-1 peptide analogs in mediating intracellular calcium mobilization ([Ca^2+]i). To illustrate that the binding of SDF-1 and SDF-1 peptide analogs results in the agonistic induction of the CXCR4 receptor, [Ca^2+]i mobilization assays were conducted, the results of which are shown in FIG. 5. To obtain the data shown in FIG. 5, fura-2,AM loaded THP-1 cells (1×10^6/ml) were stimulated with Compound A/SDF-1, SDF-1(1-14)-(G)4-SDF-1(55-67) Lys20/Glu24-cyclic amide (SEQ ID NO:809) or Compound K/SDF-1(1-14)-(G)4-SDF-1(55-67)-Glu24/Lys28-cyclic amide (SEQ ID NO:803) at the concentrations indicated (the values represent the mean ± one S.D. of n=3 experiments). […]

T1 sequence (P61073 whole entry): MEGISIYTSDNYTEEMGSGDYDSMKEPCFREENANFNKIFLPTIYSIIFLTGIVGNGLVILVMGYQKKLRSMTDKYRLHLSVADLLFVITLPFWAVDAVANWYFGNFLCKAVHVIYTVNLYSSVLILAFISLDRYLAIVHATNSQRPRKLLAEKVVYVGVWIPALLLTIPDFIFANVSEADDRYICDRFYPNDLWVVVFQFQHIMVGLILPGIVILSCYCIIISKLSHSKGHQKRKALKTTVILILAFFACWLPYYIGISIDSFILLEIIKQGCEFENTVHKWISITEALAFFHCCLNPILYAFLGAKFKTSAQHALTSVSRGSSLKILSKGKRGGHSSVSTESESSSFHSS

Regarding “H2N-Lys-Pro-Val-Ser-Leu-Ser-Tyr-Arg-Cys-Pro-Cys-Arg-Phe-Phe-[Gly-Gly-Gly-Gly]-Leu-Lys-Trp-Ile-Gln-Glu-Tyr-Leu-Glu-Lys-Ala-Leu-Asn-NH2 (H-KPVSLSYRCPCRFFGGGGLKWIQEYLEKALN-NH2; lactam 20-24; cysteine pairing not given here) [Compound A]”, the EC50 (in general, the concentration giving half of the maximal effect) came to 148 nM.
